# Laboratory results taken from PMC3585964, “Tissue Inhibitor of Metalloproteinases-3 Peptides Inhibit Angiogenesis and Choroidal Neovascularization in Mice” (PLoS ONE, 2013).
# “Also recorded” adds a separate entry of the source. Like-named read-outs stand apart in the source and are kept apart here. Ends that are not written are not given here. Peptide text beside a SMILES is read from it.
# B1: WT-TIMP-3: Full length, recombinant human TIMP-3 purified from stably transfected mouse myeloma cells (protein, UniProt P35625 1-211, looked up)
# chain: MTPWLGLIVLLGSWSLGDWGAEACTCSPSHPQDAFCNSDIVIRAKVVGKKLVKEGPFGTLVYTIKQMKMYRGFTKMPHVQYIHTEASESLCGLKLEVNKYQYLLTGRVYDGKMYTGLCNFVERWDQLTLSQRKGLNYRYHLGCNCKIKSCYYLPCFVTSKNECLWTDMLSNFGYPGYQSKHYACIRQKGGYCSWYRGWAPPDKSIINATDP
# modifications: full-length
# notes: Full length, recombinant human TIMP-3 purified from stably transfected mouse myeloma cells
# B2: NT2:CT3: NH2-terminal TIMP-2: COOH-terminal TIMP-3 chimera (residues 1–126 of TIMP-2 and residues 122–188 of TIMP-3) (protein)
# chain: CSCSPVHPQQAFCNADVVIRAKAVSEKEVDSGNDIYGNPIKRIQYEIKQIKMFKGPEKDIEFIYTAPSSAVCGVSLDVGGKKEYLIAGKAEGDGKMHITLCDFIVPWDTLSTTQKKSLNHRYQMGCCKIKSCYYLPCFVTSKNECLWTDMLSNFGYPGYQSKHYACIRQKGGYCSWYRGWAPPDKSIINATDP
# modifications: Limits are in mature numbering (TIMP-2 offset +26, TIMP-3 offset +23); Methods print TIMP-2 1-127 and Results print 1-126; the Methods limit i
# B3: S156C mutation in TIMP-3: TIMP-3 with the S156C mutation (Sorsby fundus dystrophy) (protein, UniProt P35625 24-211, looked up, variant S156C)
# Metalloproteinase inhibitor 3: CTCSPSHPQDAFCNSDIVIRAKVVGKKLVKEGPFGTLVYTIKQMKMYRGFTKMPHVQYIHTEASESLCGLKLEVNKYQYLLTGRVYDGKMYTGLCNFVERWDQLTLSQRKGLNYRYHLGCNCKIKSCYYLPCFVTSKNECLWTDMLSNFGYPGYQCKHYACIRQKGGYCSWYRGWAPPDKSIINATDP
# Assays:
# [1] = target: VEGFR-2 (KDR/Fc chimera) binding to VEGF (Homo sapiens, UniProt P35968); assay: Competitive ELISA, binding of sVEGFR-2/Fc to immobilized VEGF
# Sequence of VEGFR-2 (KDR/Fc chimera) binding to VEGF (P35968 with tags, fused parts or gaps limits assumed): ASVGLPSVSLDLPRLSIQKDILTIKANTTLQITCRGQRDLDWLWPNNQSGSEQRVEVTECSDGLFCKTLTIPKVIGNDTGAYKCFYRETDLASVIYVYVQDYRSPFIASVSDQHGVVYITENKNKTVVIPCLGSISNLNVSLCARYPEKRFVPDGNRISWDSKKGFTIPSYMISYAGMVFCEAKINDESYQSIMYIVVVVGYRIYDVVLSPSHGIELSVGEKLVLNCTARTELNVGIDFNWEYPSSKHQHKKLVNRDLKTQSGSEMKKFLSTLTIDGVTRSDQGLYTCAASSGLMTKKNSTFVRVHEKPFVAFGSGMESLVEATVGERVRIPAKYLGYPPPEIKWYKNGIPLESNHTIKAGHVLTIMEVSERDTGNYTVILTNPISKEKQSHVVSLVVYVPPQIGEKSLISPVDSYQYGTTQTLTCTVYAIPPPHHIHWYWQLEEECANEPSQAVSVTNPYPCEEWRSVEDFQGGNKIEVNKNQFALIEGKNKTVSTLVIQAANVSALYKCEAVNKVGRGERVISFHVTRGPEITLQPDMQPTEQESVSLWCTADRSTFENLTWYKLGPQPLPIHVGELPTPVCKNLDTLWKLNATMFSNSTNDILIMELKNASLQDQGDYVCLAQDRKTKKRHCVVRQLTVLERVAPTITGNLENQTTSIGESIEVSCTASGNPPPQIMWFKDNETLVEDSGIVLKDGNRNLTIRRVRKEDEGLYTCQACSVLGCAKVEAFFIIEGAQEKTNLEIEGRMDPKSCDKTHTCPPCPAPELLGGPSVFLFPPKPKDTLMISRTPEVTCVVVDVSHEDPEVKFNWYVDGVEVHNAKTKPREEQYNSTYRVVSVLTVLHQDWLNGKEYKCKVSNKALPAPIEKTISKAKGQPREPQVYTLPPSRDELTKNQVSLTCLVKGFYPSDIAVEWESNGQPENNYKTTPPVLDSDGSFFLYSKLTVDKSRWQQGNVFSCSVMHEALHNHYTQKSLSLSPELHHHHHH
# Protocol: (§1) 96 well EIA/RIA strip plates (COSTAR) were coated with 80 ng/ml recombinant VEGF overnight at 4°C, washed and blocked with blocking buffer (1% BSA and 5% sucrose) overnight at 4°C. Series of dilutions were prepared for recombinant proteins representing WT-TIMP-3, NT2:CT3 and N-T3 in PBS or synthetic peptides corresponding to T3-loop 5, T3-loop 6, T3-N or T3-tail peptides in 0.5 M Tris-HCl (pH 7.5). The diluents were mixed with 50 ng/ml recombinant human VEGFR-2 (KDR/Fc chimera, recombinant human VEGFR-1 (Flt-1)/Fc chimera (R&D Systems, Minneapolis, MN) or control human lgG (Sigma Aldrich, St Louis, MO). The mixtures were then added to the VEGF-coated well in a final volume of 100 µL in PBS and incubated for 2 hours at room temperature. Bound VEGFR-2 was detected by HRP-conjugated anti-human lgG(Fc specific) (1∶1000).
# [2] = test system: angiogenesis; VEGF binding to VEGFR-2; conditions: cited from earlier work
# Text: Tissue inhibitors of metalloproteinases (TIMPs) constitute a family of four proteins (TIMP-1, TIMP-2, TIMP-3 and TIMP-4) that are endogenous inhibitors of […] and play a critical role in the maintenance of extracellular matrix (ECM) homeostasis. In general, all four TIMPs are broad-spectrum inhibitors of the MMP family, with some differences in specificity. […] Based on these studies we designed experiments t ... || Sorsby fundus dystrophy (SFD), an autosomal dominant, fully penetrant, degenerative disease of the macula, [25] is manifested by symptoms of night blindness or sudden loss of acuity, usually in the third to fourth decades of life due to submacular neovascularization, [27], [28], [29]. SFD is caused by specific mutations in the tissue inhibitor of metalloproteinases-3 (TIMP-3) gene, [31], [32], [33], [34], [35], [36], [37], most of which introduce an unpaired cysteine at the C-terminus of the protein. We have recently reported that S156C mutation in TI ...
# [3] = test system: VEGFR-1 (Flt-1)/Fc chimera binding to VEGF; assay: Competitive ELISA, binding of sVEGFR-1/Fc to immobilized VEGF; design: species or system human; conditions: 50 ng/ml sVEGFR-1 (sFlt-1)
# Protocol: as §1
# [4] = read-out: IC50, inhibition of VEGF binding to sVEGFR-2/Fc chimera (recombinant proteins), competitive ELISA, 50 ng/ml human VEGFR-2/Fc, plate coated with 80 ng/ml VEGF, 2 h room temperature, proteins in PBS
molecule,measurement,setting,value
CC[C@H](C)[C@H](NC(=O)[C@H](CS)NC(=O)[C@H](C)NC(=O)[C@H](Cc1ccc(O)cc1)NC(=O)[C@H](Cc1c[nH]cn1)NC(=O)[C@H](CCCCN)NC(=O)[C@H](CO)NC(=O)[C@H](CCC(N)=O)NC(=O)[C@H](Cc1ccc(O)cc1)NC(=O)CNC(=O)[C@@H]1CCCN1C(=O)[C@H](Cc1ccc(O)cc1)NC(=O)CNC(=O)[C@H](Cc1ccccc1)NC(=O)[C@H](CC(N)=O)NC(=O)[C@H](CO)NC(=O)[C@H](CC(C)C)NC(=O)[C@H](CCSC)NC(=O)[C@H](CC(=O)O)NC(=O)[C@@H](NC(=O)[C@H](Cc1c[nH]c2ccccc12)NC(=O)[C@H](CC(C)C)NC(=O)[C@H](CS)NC(=O)[C@H](CCC(=O)O)NC(=O)[C@H](CC(N)=O)NC(=O)[C@@H](N)CCCCN)[C@@H](C)O)C(=O)N[C@@H](CCCNC(=N)N)C(=O)N[C@@H](CCC(N)=O)C(=O)N[C@@H](CCCCN)C(=O)NCC(=O)O [T3-loop 6] (H-KNECLWTDMLSNFGYPGYQSKHYACIRQKG-OH),IC50,[1],2000 nM
GYCSWYRGWAPPDKSIINATDP [T3-tail],IC50,[1],5000 nM
B1,Effect of recombinant proteins on VEGF-VEGFR-2 complexes (in words),"[1]; competitive ELISA, 50 ng/ml sVEGFR-2, proteins in PBS",inhibit sVEGFR-2-VEGF complexes in a concentration-dependent manner; also recorded: markedly decreased
same,IC50,[1]; [4],41 nM
same,Blocking of VEGF binding to VEGFR-2 / angiogenesis inhibition (literature),"[2]; independent of MMP inhibitory activity, ref [8]",potent angiogenesis inhibitor
same,Inhibition of angiogenesis independent of MMP inhibition (literature),"[2]; ref [8], [21], [22]",Inhibition of angiogenesis
same,Effect of recombinant proteins on VEGF binding to VEGFR-1 (in words),[3],unable to block sVEGFR-1-VEGF complexes; also recorded: neither full length WT-TIMP-3 nor COOH-terminal TIMP-3 blocked the binding of VEGF to VEGFR1
B2,IC50,[1]; [4],28 nM
B3,Effect of TIMP-3 mutation on angiogenesis (literature),[2]; ref [18],induces increased angiogenesis
